Assay results: US20240255522A1

Tests used:
[1] = target: MHCII (DR); experiment: competition
[2] = target: HLA-DRB1*01:01 MHCII molecule (human); experiment: competition ELISA; 25 nM huCLIP-bio
[3] = target: HLA-DRB1*01:01 MHCII molecule (human); experiment: competition ELISA; 50 nM, pp65 reference
[4] = target: HLA-DRB1*01:01 MHCII molecule (human); experiment: competition ELISA; 25 nM, pp65 reference
[5] = target: HLA-DRB1*01:01 MHCII molecule (human); experiment: competition ELISA; 50 nM huCLIP-bio
[6] = target: MHCII (DR); experiment: competition ELISA

| Substance | IC50 [1] | IC50 [6] | further results |
| --- | --- | --- | --- |
| LASV RNAP | 0.517 µM | – | – |
| LCMV RNAP | 0.287 µM | – | – |
| mCLIP | – | 0.268 µM | IC50 [2]: 0.163 µM; IC50 [3]: 0.00783 µM; IC50 [4]: 0.00347 µM; IC50 [5]: 0.429 µM |
| VETF (275-289) | – | 0.983 µM | – |
| VV HP (23-37) | – | 2.02 µM | – |
| MOG (35-55) | – | 2.05 µM | – |
| LCMV NP (201-215) | 1.22 µM | – | – |
| OVA (323-339) | – | 10.7 µM | – |
